From patent publication EP1007090B1 (Biogen Idec Inc., dated 2009)
Like-named read-outs stand apart in the source and are kept apart here.

Legend:
B7.1/Ig fusion protein [1] = target: T1, B7.1/Ig fusion protein (human, UniProt P33681 35-242, limits assumed); assay: Scatchard analysis, binding to B7-Ig coated plates
T1 construct: Secreted by CHO cells; also called B7-Ig; 125I-B7.1Ig; not shown: human immunoglobulin CH2 and CH3
T1 sequence (looked up): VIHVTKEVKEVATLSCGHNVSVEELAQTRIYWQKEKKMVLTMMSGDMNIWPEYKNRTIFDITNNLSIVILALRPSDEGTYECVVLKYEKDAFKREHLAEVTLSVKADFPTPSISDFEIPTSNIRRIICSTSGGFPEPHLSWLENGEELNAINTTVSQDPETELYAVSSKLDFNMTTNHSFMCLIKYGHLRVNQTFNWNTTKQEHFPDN

B7.1/Ig fusion protein [2] = target: T1, B7.1/Ig fusion protein; assay: Scatchard analysis, binding to B7-Ig coated plates; remark: listed apart in the source

Kd (B7.1/Ig fusion protein [1]): ~0.0107 µM | Kd (B7.1/Ig fusion protein [2]): ~0.0107 µM
B1: monkey monoclonal antibody 7B6 (antibody, V domains shown)
VH: EVQLVESGGGLVQPGGSLRVSCAVSGFTFSDHYMYWFRQAPGKGPEWVGFIRNKPNGGTTEYAASVKDRFTISRDDSKSIAYLQMSSLKIEDTAVYYCTTSYISHCRGGVCYGGYFEFWGQGALVTVSS
VL: EVVMTQSPLSLPITPGEPASISCRSSQSLKHSNGDTFLSWYQQKPGQPPRLLIYKVSNRDSGVPDRFSGSGAGTDFTLKISAVEAEDVGVYFCGQGTRTPPTFGGGTKVEIK
